Results published in article PMC2730168 (Molecular cell, 2009).

T1: Core RAG1 (384–1008) fused to MBP (MR1) (mouse), P15919
T1 chain: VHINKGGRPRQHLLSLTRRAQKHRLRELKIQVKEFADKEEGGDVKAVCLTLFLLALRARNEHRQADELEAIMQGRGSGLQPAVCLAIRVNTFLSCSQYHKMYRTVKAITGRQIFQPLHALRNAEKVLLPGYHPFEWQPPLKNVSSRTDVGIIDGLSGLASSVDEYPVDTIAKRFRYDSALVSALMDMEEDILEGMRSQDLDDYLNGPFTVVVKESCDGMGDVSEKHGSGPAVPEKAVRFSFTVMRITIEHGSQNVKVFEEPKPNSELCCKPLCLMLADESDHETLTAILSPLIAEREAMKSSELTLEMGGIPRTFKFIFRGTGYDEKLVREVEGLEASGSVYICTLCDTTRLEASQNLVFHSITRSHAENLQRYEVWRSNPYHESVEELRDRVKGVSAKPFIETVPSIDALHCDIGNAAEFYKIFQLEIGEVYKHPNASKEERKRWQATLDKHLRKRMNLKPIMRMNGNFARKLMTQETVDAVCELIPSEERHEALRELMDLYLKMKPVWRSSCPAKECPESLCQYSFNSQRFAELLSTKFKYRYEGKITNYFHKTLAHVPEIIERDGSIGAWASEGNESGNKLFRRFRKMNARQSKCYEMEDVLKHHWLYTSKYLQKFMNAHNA

T2: Core RAG1 (384–1008) fused to MBP (MR1) (mouse, UniProt P15919 384-1008)
T2 sequence (looked up): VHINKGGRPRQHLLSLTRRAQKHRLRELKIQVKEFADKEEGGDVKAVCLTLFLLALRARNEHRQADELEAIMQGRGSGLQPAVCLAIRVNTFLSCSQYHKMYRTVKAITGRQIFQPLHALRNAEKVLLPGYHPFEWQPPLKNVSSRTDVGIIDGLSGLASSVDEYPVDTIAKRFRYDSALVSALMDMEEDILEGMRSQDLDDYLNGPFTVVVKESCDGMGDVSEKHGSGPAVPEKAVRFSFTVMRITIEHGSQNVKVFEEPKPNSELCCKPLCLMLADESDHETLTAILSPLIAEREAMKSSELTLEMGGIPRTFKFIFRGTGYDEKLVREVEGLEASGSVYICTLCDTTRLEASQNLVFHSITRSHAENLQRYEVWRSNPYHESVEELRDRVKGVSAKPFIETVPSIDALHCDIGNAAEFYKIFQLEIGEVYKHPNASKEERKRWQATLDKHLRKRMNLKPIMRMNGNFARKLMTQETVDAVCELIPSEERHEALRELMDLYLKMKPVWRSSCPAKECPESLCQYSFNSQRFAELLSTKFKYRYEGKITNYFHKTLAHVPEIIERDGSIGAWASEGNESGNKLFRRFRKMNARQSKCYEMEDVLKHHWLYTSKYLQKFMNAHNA


Assays:
[1] = biological target: T1, Core RAG1 (384–1008) fused to MBP (MR1) …; assay: SEC-MALS; conditions: remark: other sources report otherwise
[2] = biological target: T2, Core RAG1 (384–1008) fused to MBP (MR1); assay: SEC

Binder | stoichiometry N [1] | stoichiometry N [2]
Core RAG1 (384–1008) fused to MBP (MR1), P15919 384-1008 (domain or fragment) VHINKGGRPRQHLLSLTRRAQKHRLRELKIQVKEFADKEEGGDVKAVCLTLFLLALRARNEHRQADELEAIMQGRGSGLQPAVCLAIRVNTFLSCSQYHKMYRTVKAITGRQIFQPLHALRNAEKVLLPGYHPFEWQPPLKNVSSRTDVGIIDGLSGLASSVDEYPVDTIAKRFRYDSALVSALMDMEEDILEGMRSQDLDDYLNGPFTVVVKESCDGMGDVSEKHGSGPAVPEKAVRFSFTVMRITIEHGSQNVKVFEEPKPNSELCCKPLCLMLADESDHETLTAILSPLIAEREAMKSSELTLEMGGIPRTFKFIFRGTGYDEKLVREVEGLEASGSVYICTLCDTTRLEASQNLVFHSITRSHAENLQRYEVWRSNPYHESVEELRDRVKGVSAKPFIETVPSIDALHCDIGNAAEFYKIFQLEIGEVYKHPNASKEERKRWQATLDKHLRKRMNLKPIMRMNGNFARKLMTQETVDAVCELIPSEERHEALRELMDLYLKMKPVWRSSCPAKECPESLCQYSFNSQRFAELLSTKFKYRYEGKITNYFHKTLAHVPEIIERDGSIGAWASEGNESGNKLFRRFRKMNARQSKCYEMEDVLKHHWLYTSKYLQKFMNAHNA | 2 | –
Core RAG2 fused to MBP with a PreScission protease site (LR2) (domain or fragment, mouse, UniProt P21784 1-387, looked up) MSLQMVTVGHNIALIQPGFSLMNFDGQVFFFGQKGWPKRSCPTGVFHFDIKQNHLKLKPAIFSKDSCYLPPLRYPATCSYKGSIDSDKHQYIIHGGKTPNNELSDKIYIMSVACKNNKKVTFRCTEKDLVGDVPEPRYGHSIDVVYSRGKSMGVLFGGRSYMPSTQRTTEKWNSVADCLPHVFLIDFEFGCATSYILPELQDGLSFHVSIARNDTVYILGGHSLASNIRPANLYRIRVDLPLGTPAVNCTVLPGGISVSSAILTQTNNDEFVIVGGYQLENQKRMVCSLVSLGDNTIEISEMETPDWTSDIKHSKIWFGSNMGNGTIFLGIPGDNKQAMSEAFYFYTLRCSEEDLSEDQKIVSNSQTSTEDPGDSTPFEDSEEFCFS | – | 1 RAG1:RAG2
HMGB1 (1–163) (domain or fragment, UniProt P09429 1-163, looked up) MGKGDPKKPRGKMSSYAFFVQTCREEHKKKHPDASVNFSEFSKKCSERWKTMSAKEKGKFEDMAKADKARYEREMKTYIPPKGETKKKFKDPNAPKRPPSAFFLFCSEYRPKIKGEHPGLSIGDVAKKLGEMWNNTAADDKQPYEKKAAKLKEKYEKDIAAYR | – | ~0.5 per RAG1
